Experimental data taken from patent publication US20140017790A1, “CONTROL AGENT FOR CONTROLLING UNDIFFERENTIATED STATE AND USE THEREOF” (RIKEN, priority 2011, published 2014).

Experiments:
Type in all cases: cell-based
mouse iPS cells = assay: flow cytometry analysis of Nanog-GFP positive cell population
Method: In the present example, the above-described DMEM to which the LIF and mouse recombinant CCL2 (MCP-1, #479-JE-010, R&D Systems) had been added was used. In the medium, the final concentration of the LIF was set to 25 units/ml, and the concentration of the recombinant CCL2 was set to 500 ng/ml. The amount of the medium to be added to a 12-well dish was set to 1 ml per well. On the other hand, in a comparative example, the above-described DMEM containing the LIF but not containing the CCL2 was used. The final concentration of the LIF was set to 25 units/ml.
The mouse iPS cells cultured under feeder free conditions were cultured in the medium of the example and the medium of the comparative example, respectively. The mouse iPS cells were seeded in the 12-well dish at a density of 6×10^4 cells/well.
The flow cytometry analysis was carried out in the following manner. After the mouse iPS cells had been cultured in the above described manner, the cells were collected from the wells, and were suspended again in an ES medium containing 25 units/ml of LIF. As the ES medium, a DMEM (containing glucose at a high concentration and containing no sodium pyruvate) containing 15% FBS, 0.1 mmol/l NEAA, and 0.1 mmol/l 2-Mercaptoethanol was used. Then, this cell suspension was applied to a flow cytometer (trade name: BD FACSAria (registered trademark) II, Becton, Dickinson and Company), and analyzed in accordance with the protocol of the flow cytometer. At this time, as a cell population having pluripotency, i.e., undifferentiated cell population, a Nanog-GFP-positive region sorted out based on FITC-A>10^4 was monitored. The raw data was analyzed by a program (FlowJo, ver. 7), and plotted in the form of density plot. The iPS cells were produced from MEF of a modified mouse with a GFP protein being incorporated in the promoter region of the Nanog gene. Thus, when the cells expressed the Nanog gene, it means the cells were Nanog-GFP positive, so that the GFP was produced and this GFP was detected by the FACS. […]

STAT3 = assay: Western blotting, phosphorylation of STAT3 in mouse iPS cells; conditions: CCL2 overexpressed, 24 hours, relative to negative control
Method: The mouse iPS cells transfected with the Ccl2 expression vector were cultured for 24 hours in the same manner as in Example 1. After the culture, the mouse iPS cells were washed with PBS, and then were suspended in 100 μl of a mammalian m-PER lysis buffer. The suspension was passed through a 26-gauge needle for 10 minutes to homogenize the cells. Then, the suspension was centrifuged at 13,000 rpm and 4° C. for 5 minutes, and the supernatant was collected. The protein concentration in the supernatant was measured using a Pierce (registered trademark) BCA Protein assay (trade name, Thermo Scientific). Next, the supernatant was subjected to Western blotting to detect a target protein. […] Then, luminescence on the membrane was detected using a Fuji LAS-3000 luminescent image analyzer.
As the primary antibody, an anti-phosphorylated STAT3 antibody (anti-pSTAT3 antibody, commercially available from CST, #9145) was used for the phosphorylated STAT3 (pSTAT3), an anti-STAT3 antibody (CST, #9132) was used for the STAT3 protein, and an anti-GAPDH antibody (Santa Cruz Biotechnology Inc, #25778) was used for GAPDH, which is an expression control. […] Then, the ratio of the phosphorylated STAT3 to the non-phosphorylated STAT3 (pSTAT3/STAT3) was determined. […]

human iPS cells = assay: cell adhesion and growth, number of human iPS cells over time; conditions: bFGF(-)/CCL2(+) versus bFGF(+)/CCL2(-)
Method: Human iPS cells were cultured under feeder conditions in the same manner as in Example 8, and the number of cells was measured every 48 hours. As a negative control, the same procedures were carried out except that bFGF was added instead of the CCL2. FIG. 17 is a graph showing the change with time in the number of the human iPS cells. The vertical axis indicates the number of cells (10^4 cells/ml), and the horizontal axis indicates the culture time (hr). CCL2(+) indicates the results obtained under the conditions of bFGF(−)/CCL2(+), and CCL2(−) indicates the results obtained under the conditions of bFGF(+)/CCL2(−).

B1: CCL2: mouse recombinant CCL2 (MCP-1, #479-JE-010, R&D Systems); in Examples 1, 3, 4(1), 5 mouse CCL2 (SEQ ID NO: 3) overexpressed from Ccl2 expression vector (protein, listed as Mus musculus)
chain: MQVPVMLLGLLFTVAGWSIHVLAQPDAVNAPLTCCYSFTSKMIPMSRLESYKRITSSRCPKEAVVFVTKLKREVCADPKKEWVQTYIKNLDRNQMRSEPTTLFKTASALRSSAPLNVKLTRKSEANASTTFSTTTSSTSVGVTSVTVN
proportion of the Nanog-GFP positive mouse iPS cells (mouse iPS cells; CCL2 500 ng/ml, LIF 25, 50, 100, 500 and 1000 units/ml, versus no CCL2): increased | proportion of the Nanog-GFP positive mouse iPS cells (mouse iPS cells; recombinant CCL2 500 ng/ml + LIF 25 units/ml, feeder free, 24 hours, comparative medium (LIF only) 37.6%): 67.3% | number of undifferentiated cells having pluripotency (Nanog-GFP positive) (mouse iPS cells; recombinant CCL2 500 ng/ml added to PI3K inhibitor 5 ng/ml + LIF 25 units/ml): further increase | ratio of phosphorylated STAT3 to non-phosphorylated STAT3 (pSTAT3/STAT3) (STAT3): increased | number of the cells (human iPS cells; as of 48 hours): greater | growth potential (human iPS cells; as of 144 hours (6th day)): improved further
